# Assay results taken from paper PMC5028032, “Linkage between Fitness of Yeast Cells and Adenylate Kinase Catalysis” (PLoS ONE, 2016).
# Tested on: Nc1ncnc2c1ncn2[C@@H]1O[C@H](COP(=O)(O)OP(=O)(O)OP(=O)(O)O)[C@@H](O)[C@H]1O
# Experiment: purified protein
# Conditions: 300 μM AMP constant, 2 mM MgCl2, 80 mM KCl, 100 mM Tris pH 7.5, 20°C
Substance,Km [µM],kcat [s⁻¹],kcat/Km [M⁻¹ s⁻¹]
Adkeco (Escherichia coli K-12),72 ± 8,305,4.26e+06
Adkeco (Escherichia coli K-12; T163C),37 ± 2,143,3.9e+06
Adkeco (Escherichia coli K-12; G10V),411 ± 61,60,140000
